Assay results published in US20190300611A1 (ARCH ONCOLOGY, published 2019).

B1: VLX4 IgG4 S228P (xi) (antibody)
heavy: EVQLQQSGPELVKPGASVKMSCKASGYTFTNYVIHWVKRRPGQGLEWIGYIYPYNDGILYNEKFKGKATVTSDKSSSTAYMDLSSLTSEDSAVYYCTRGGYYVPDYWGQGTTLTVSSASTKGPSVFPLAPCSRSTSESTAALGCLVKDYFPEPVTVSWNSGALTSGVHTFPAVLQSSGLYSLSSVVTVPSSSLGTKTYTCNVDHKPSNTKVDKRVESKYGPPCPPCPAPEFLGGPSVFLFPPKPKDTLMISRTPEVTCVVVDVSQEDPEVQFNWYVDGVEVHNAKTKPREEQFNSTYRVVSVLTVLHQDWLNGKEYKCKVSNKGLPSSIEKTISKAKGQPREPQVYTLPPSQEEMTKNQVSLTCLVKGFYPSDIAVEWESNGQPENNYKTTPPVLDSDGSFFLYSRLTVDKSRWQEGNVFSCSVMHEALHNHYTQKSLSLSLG
light: DVLMTQTPLSLPVNLGDQASISCRSRQSIVHTNGNTYLGWFLQKPGQSPKLLIYKVSNRFSGVPDRFSGSGSGTDFTLTISRVEAEDLGVYYCFQGSHVPYTFGGGTKLEIKRTVAAPSVFIFPPSDEQLKSGTASVVCLLNNFYPREAKVQWKVDNALQSGNSQESVTEQDSKDSTYSLSSTLTLSKADYEKHKVYACEVTHQGLSSPVTKSFNRGEC
B2: VLX4 IgG2 (xi) (antibody)
heavy: EVQLQQSGPELVKPGASVKMSCKASGYTFTNYVIHWVKRRPGQGLEWIGYIYPYNDGILYNEKFKGKATVTSDKSSSTAYMDLSSLTSEDSAVYYCTRGGYYVPDYWGQGTTLTVSSASTKGPSVFPLAPCSRSTSESTAALGCLVKDYFPEPVTVSWNSGALTSGVHTFPAVLQSSGLYSLSSVVTVPSSNFGTQTYTCNVDHKPSNTKVDKTVERKCCVECPPCPAPPVAGPSVFLFPPKPKDTLMISRTPEVTCVVVDVSHEDPEVQFNWYVDGVEVHNAKTKPREEQFNSTFRVVSVLTVVHQDWLNGKEYKCKVSNKGLPAPIEKTISKTKGQPREPQVYTLPPSREEMTKNQVSLTCLVKGFYPSDIAVEWESNGQPENNYKTTPPMLDSDGSFFLYSKLTVDKSRWQQGNVFSCSVMHEALHNHYTQKSLSLSPGK
light: B1 light
B3: VLX4 IgG4 PE(xi) (antibody)
heavy: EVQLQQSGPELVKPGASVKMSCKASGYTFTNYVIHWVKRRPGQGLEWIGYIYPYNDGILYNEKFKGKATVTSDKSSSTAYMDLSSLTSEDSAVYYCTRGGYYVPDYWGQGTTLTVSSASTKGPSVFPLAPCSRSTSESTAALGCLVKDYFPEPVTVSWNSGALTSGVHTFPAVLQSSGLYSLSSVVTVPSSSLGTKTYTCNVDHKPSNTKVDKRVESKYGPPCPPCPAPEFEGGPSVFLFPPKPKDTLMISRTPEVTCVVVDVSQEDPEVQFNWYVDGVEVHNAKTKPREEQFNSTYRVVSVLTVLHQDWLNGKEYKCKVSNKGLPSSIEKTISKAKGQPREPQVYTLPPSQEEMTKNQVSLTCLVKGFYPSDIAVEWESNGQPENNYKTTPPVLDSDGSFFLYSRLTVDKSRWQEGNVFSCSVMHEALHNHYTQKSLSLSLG
light: B1 light
notes: Murine-human chimera; also called VLX4 IgG4PE chimeric mAb

These binders were tested against T1, human CD47 (human, UniProt Q08722 19-292) (assay: flow cytometry on human RBCs).
T1 construct: On the surface of OV10 cells transfected with human CD47, fresh human RBCs, Jurkat T cells or human breast cancer tissue; also called hCD47; integrin-associated protein (IAP)
T1 sequence (Q08722 other isoform, or with tags, fused parts or gaps limits assumed): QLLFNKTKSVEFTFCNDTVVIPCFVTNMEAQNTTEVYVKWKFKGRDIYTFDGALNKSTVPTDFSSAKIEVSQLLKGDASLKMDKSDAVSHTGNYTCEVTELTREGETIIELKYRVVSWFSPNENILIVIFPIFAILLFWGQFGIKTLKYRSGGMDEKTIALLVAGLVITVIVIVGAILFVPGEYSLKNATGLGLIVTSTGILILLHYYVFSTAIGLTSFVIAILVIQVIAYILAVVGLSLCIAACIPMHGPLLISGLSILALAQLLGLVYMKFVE
Protocol: Binding activities of chimeric (murine-human) and humanized VLX4, VLX8, and VLX9 mAbs to human CD47 on hRBCs were also determined using flow cytometry. hRBCs were incubated for 60 min on at 37° C. with various concentrations of the chimeric or humanized antibodies in a solution of phosphate buffered saline, pH 7.2, 2.5 mM EDTA (PBS+E). Cells were then washed with cold PBS+E, and incubated for an additional hour on ice with FITC labeled donkey anti-human antibody (Jackson Immuno Research Labs, West Grove, Pa.; Catalogue #709-096-149) in PBS+E. Cells were washed with PBS+E, antibody binding analyzed using a C6 Accuri Flow Cytometer (Becton Dickinson) and apparent binding affinities determined by non-linear fit (Prism GraphPad software) of the median fluorescence intensities at the various antibody concentrations.

Kd [nM] | Binder
0.099 | B1
0.184 | B2
0.303 | B3

These binders were tested against T1, human CD47 (assay: cell-based ELISA on OV10 hCD47 cells).
Protocol: Binding activities of VLX4, VLX8, and VLX9 chimeric (murine-human) and humanized mAbs were determined using a cell-based ELISA assay with human OV10 hCD47 cells expressing cell surface human CD47. OV10 hCD47 cells were grown in IMDM medium containing 10% heat inactivated fetal bovine serum (BioWest; S01520). One day before assay, 3×10⁴ cells were plated in 96 well cell bind plates (Corning #3300, VWR #66025-626) and were 95-100% confluent at the time of assay. Cells were washed and various concentrations of purified antibodies added in IMDM 37° C. for 1 hr in […]. Cells were then washed with media and incubated for an additional hour at 37° C. with HRP labeled secondary anti-human antibody (Promega) diluted 1/2500 in media. Cells were washed three times with PBS, and the peroxidase substrate 3,3′, 5,5′-tetramethylbenzidine is added (Sigma; Catalog #T4444). Reactions were terminated by the addition of HCl to 0.7N, and absorbance at 450 nm is determined using a Tecan model Infinite M200 plate reader. The apparent binding affinities of these clones to human OV10 hCD47 cells was determined by non-linear fit (Prism GraphPad software).

Kd [nM] | Binder
0.214 | B1
0.431 | B2
0.225 | B3
